Our source for the protein stability index values is the supplement of paper PMC10567573.

This data set in a line: protein stability index of a GFP-peptide fusion (GPS, HEK-293T) (PSI 1-6); higher = more stable.
The mark [1] stands for this setting: treatment: DMSO, c terminus: a fixed tail appended.
Where [2] appears, read: treatment: MLN4924 1 uM, 8 h, c terminus: a fixed tail appended.

± gives the standard deviation.
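Further: 24-mer peptide tiles fused after GFP, lentivirally expressed, FACS-sorted into six equal bins by GFP/DsRed ratio, decoded by Illumina sequencing, PSI is the read-weighted mean bin number.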

In the case of HHSTQPKRNKRNPIFQDSQDTEVF [FAM104B], the protein stability index runs as follows: under setting [1], 4.19 ± 0.34; under setting [2], 4.63 ± 0.27.

Consider LFVGVDCFLLTAMAYDQFLAICRP [OR3A1], for which the protein stability index is, setting by setting: under setting [1], 3.63 ± 0.6; under setting [2], 3.13 ± 0.071.

Regarding SLADQMSLLQSAWMEILILGVVYR [ESRRG], the protein stability index by setting is: under setting [1], 2.88 ± 0.55; under setting [2], 2.86 ± 0.42.

In the case of VRKANRIKECLSKGTFSDVTFKLD [RHOBTB1], the protein stability index runs as follows: under setting [1], 3.33 ± 0.21; under setting [2], 3.43 ± 0.19.

With DKYVGVSSDSVGGFRYSERYDPEP [CLINT1], the protein stability index was 4.22 ± 0.23 under setting [1] and 4.27 ± 0.35 under setting [2].

In the case of VCSSNKPAIVEAGGMQALGLHLTD [CTNNB1], the protein stability index runs as follows: under setting [1], 4.04 ± 0.087; under setting [2], 3.89 ± 0.16.

On to DLLSCSNFAVQHRYLFEEDNLLRS [MATN2], for which the protein stability index runs as follows: under setting [1], 2.42 ± 0.18; under setting [2], 2.43 ± 0.47.

Turning to TLQSITWQMIEQIQFIKLFGMAKI [HNF4A], the protein stability index was found to be 2.86 ± 0.6 under setting [1] and 2.87 ± 0.42 under setting [2].

Consider RVLLTGLHAVADIHCENCKTTLGW [YPEL3], for which the protein stability index reads like this: under setting [1], 2.42 ± 0.69; under setting [2], 2.27 ± 0.29.

As to HGASPGLRDGGGLTPLELLLRQLG [ANKRD9], the protein stability index runs as follows: under setting [1], 2.66 ± 0.15; under setting [2], 2.76 ± 0.35.

Regarding GGIKTVDMRDPTYRPLKQELQGLD [SPSB1], the protein stability index is, setting by setting: under setting [1], 4.18 ± 0.37; under setting [2], 4.33 ± 0.27.

With GHSTDAREMSKTFIIGELHPDDRP [CYB5A], the protein stability index is, setting by setting: under setting [1], 4.38 ± 0.15; under setting [2], 4.66 ± 0.16.

For the sequence RHRLITQVYLSHTAWTEACQVEVR [INTS4], the protein stability index worked out at 2.37 ± 0.15 under setting [1] and 2.43 ± 0.51 under setting [2].

Turning to GLSDRAKEAKEFLVQLRNMVQQIQ [TRIM9], the protein stability index is, setting by setting: under setting [1], 2.17 ± 0.56; under setting [2], 2.2 ± 0.23.

Take HGGLYKPVQCHPSTGYCWCVLVDT [SMOC2]: the protein stability index under setting [1] amounted to 2.46 ± 0.86 and the protein stability index under setting [2] came to 2.39 ± 0.74.

As for RRLGNGVSDDLSSEEDGEARTQMI [PHTF1], the protein stability index reads like this: under setting [1], 5.38 ± 0.2; under setting [2], 5.21 ± 0.23.

With CAINKVGVSFSTVENELMISYLMF [FAM98B], the protein stability index came to 2.63 ± 0.48 under setting [1] and 2.81 ± 0.41 under setting [2].

For the sequence RSEPIRPIDPAAWVSHTAAMTGTF [DVL3], the protein stability index under setting [1] was determined as 2.99 ± 0.09 and the protein stability index under setting [2] is 3.04 ± 0.23.

Sequence HLVPEPDRLEEQLPWLSLRALKFR [DNAAF3] showed a protein stability index under setting [1] of 2.63 ± 0.1 and a protein stability index under setting [2] of 2.78 ± 0.26.

RASRTYELQNQLAACTRALESSEE [FSD1]: the protein stability index under setting [1] came to 5.01 ± 0.2 and the protein stability index under setting [2] is 4.92 ± 0.26.

RKLSSAVRSGIVEYLSLVKGGQDV [PRIM1]: the protein stability index by setting is: under setting [1], 2.68 ± 0.36; under setting [2], 2.77 ± 0.36.

In the case of IRRFLSAFHEPQVGLIQAAQQLLC [DFFB], the protein stability index is, setting by setting: under setting [1], 2.18 ± 0.38; under setting [2], 2.14 ± 0.17.

NLKNDGRQVEKRRNSGPVVEKLKQ [MMP1]: the protein stability index runs as follows: under setting [1], 4.58 ± 0.24; under setting [2], 4.41 ± 0.49.

Consider ALIETSYVKVLHHMVKISGGPRIS [MAGEA6], for which the protein stability index runs as follows: under setting [1], 2.93 ± 0.41; under setting [2], 2.88 ± 0.51.

On to RYNRKYLMCGGIAFWSLVTLGSSF [SPNS1], for which the protein stability index worked out at 2.68 ± 0.88 under setting [1] and 2.77 ± 0.96 under setting [2].

Take AMFPETLDEGMQIPSTQFDAAHPT [CTNNB1]: the protein stability index runs as follows: under setting [1], 4.5 ± 0.091; under setting [2], 4.49 ± 0.28.

Regarding LGPQVSLDPMKNVTCENGLPAVVS [LOXL2], the protein stability index came out at 4.3 ± 0.97 under setting [1] and 4.12 ± 0.25 under setting [2].

For QRCQKCSWSQYEMPEFSSDSTMRI [RTP4], the protein stability index is, setting by setting: under setting [1], 2.36 ± 0.18; under setting [2], 2.42 ± 0.16.

On to EDNEREGTENGAIDAVPVDENLFT [ZC3H15], for which the protein stability index by setting is: under setting [1], 5.54 ± 0.15; under setting [2], 5.68 ± 0.23.

For the sequence DIEMSMRGDIFERIVHLQETCDLG [NLN], the protein stability index by setting is: under setting [1], 3.26 ± 0.47; under setting [2], 3.22 ± 0.36.

The sequence WKNTKKMGVGKASASDGSSFVVAR [GLIPR2] showed a protein stability index under setting [1] of 3.64 ± 0.27 and a protein stability index under setting [2] of 3.71 ± 0.3.

Take GNTIALFFRSLLPNYTMEGERPEE [TCF25]: the protein stability index runs as follows: under setting [1], 2.17 ± 0.62; under setting [2], 2.72 ± 0.21.

For APCRSAQASVSCALEALEPFWEVL [HDAC6], the protein stability index turned out to be 3.32 ± 0.59 under setting [1] and 2.69 ± 0.82 under setting [2].

Regarding LSFYNARTKQVLHTFKTRFTQPLL [FSD1], the protein stability index reads like this: under setting [1], 2.45 ± 0.6; under setting [2], 2.43 ± 0.6.

The sequence FGGVLEYFMIQALNQKTSEKMKKR [RHOBTB3] registered a protein stability index under setting [1] of 2.14 ± 0.66 and a protein stability index under setting [2] of 2.24 ± 0.25.

On to SGASPKESTNPEKAHETLHQSLSL [CDC25A], for which the protein stability index turned out to be 4.95 ± 0.12 under setting [1] and 4.83 ± 0.11 under setting [2].

In the case of RESERRNHSLARHADILAAVETRL [FBXO28], the protein stability index is, setting by setting: under setting [1], 3.71 ± 0.15; under setting [2], 3.9 ± 0.27.

With DFANTIPGHGGIMDRFDCQYLMAT [CDS1], the protein stability index by setting is: under setting [1], 2.42 ± 0.21; under setting [2], 2.63 ± 0.42.

As to CVADNTNLYVFGGYNPDYDESGGP [KLHDC10], the protein stability index is 3.26 ± 0.14 under setting [1] and 3.18 ± 0.34 under setting [2].

For the sequence QADLELDYNPPRVQLSDEMFVFQD [CBY2], the protein stability index runs as follows: under setting [1], 4.65 ± 0.28; under setting [2], 4.83 ± 0.21.

For QNLLREKIMKLPLPESLKAYLTYF [PCMTD1], the protein stability index was determined as 2.49 ± 0.53 under setting [1] and 2.12 ± 0.36 under setting [2].

For the sequence MEAPGLAQAAAAESDSRKVAEETP [PRKX], the protein stability index amounted to 5.56 ± 0.38 under setting [1] and 5.54 ± 0.31 under setting [2].

ILVYDIANRWSFDGIDRWIKEIDE [RAB40B] showed a protein stability index under setting [1] of 2.11 ± 0.57 and a protein stability index under setting [2] of 1.93 ± 0.31.

On to GEDRAGPQSPSPGAPPAAKPARG [TSPAN10], for which the protein stability index was determined as 5.32 ± 0.27 (treatment: DMSO, c terminus: native) and 5.13 ± 0.12 (treatment: MLN4924 1 uM, 8 h, c terminus: native).

As to GADPKSVVCAFFKQGQCTKGDKCK [ZC3H15], the protein stability index was determined as 3.82 ± 0.14 under setting [1] and 4.28 ± 0.37 under setting [2].

In the case of ENFDHNTLALILQIPTQNTQARQV [PPFIA4], the protein stability index by setting is: under setting [1], 2.58 ± 0.21; under setting [2], 2.81 ± 0.45.

Turning to QVLRFYAIWDDTDSMYGECRTYII [EFHC1], the protein stability index came to 2.91 ± 1 under setting [1] and 2.58 ± 0.47 under setting [2].

ADGDGGGGQCCRRQDSPSPDFYKQ [PCDHGC5]: the protein stability index amounted to 4.67 ± 0.25 under setting [1] and 4.44 ± 0.4 under setting [2].

For the sequence MQNLNDRLASYLDKVRALEEANAD [KRT15], the protein stability index by setting is: under setting [1], 4.22 ± 0.32; under setting [2], 4.37 ± 0.23.

Take VSNMSGPSGEEEAKVGPGLPDGCQ [CBY2]: the protein stability index turned out to be 5.46 ± 0.12 under setting [1] and 5.16 ± 0.16 under setting [2].

Turning to RPLLQYVQDMGQEDMLLPLAWRIV [CCNC], the protein stability index is, setting by setting: under setting [1], 2.44 ± 0.17; under setting [2], 2.24 ± 0.31.

With HYRELLDSLPMDAYTHGCILHPEL [GDAP1], the protein stability index stood at 2.36 ± 0.2 under setting [1] and 2.43 ± 0.034 under setting [2].

LRDWEDLQQDFQNIQETHRLYRLK [TMEM120A]: the protein stability index under setting [1] amounted to 3.38 ± 0.28 and the protein stability index under setting [2] was determined as 3.49 ± 0.4.

As for YVGNLPPDIRTKDIEDVFYKYGAI [SRSF1], the protein stability index runs as follows: under setting [1], 2.28 ± 0.35; under setting [2], 2.43 ± 0.36.

In the case of CQGQRLFEKLLQLTSQNIEIKLVS [PLD5], the protein stability index reads like this: under setting [1], 2.35 ± 0.19; under setting [2], 2.29 ± 1.3.

In turn, AGGAPGSPIPSPPGPGDDLCSDLE [HES6] returned a protein stability index under setting [1] of 5.51 ± 0.45 and a protein stability index under setting [2] of 5.34 ± 0.4.

With IDGIQAIYGRSQNPVQPIGPQTPK [MMP1], the protein stability index by setting is: under setting [1], 3.97 ± 0.074; under setting [2], 4.07 ± 0.36.

As for GRGVKKRLVLCMELANGKPQTRSG [ADAMTSL2], under setting [1], the protein stability index is 2.19 ± 0.56.

With SSQESGEEAGSQENHPQESKGQPR [CHGB], the protein stability index worked out at 5.7 ± 0.16 under setting [1] and 5.73 ± 0.097 under setting [2].

On to EAMLYHNQTAELRELLEFTHMYLQ [P3H4], for which the protein stability index turned out to be 2.48 ± 0.37 under setting [1] and 2.69 ± 0.62 under setting [2].

As for SNSLSSAEPLKEDKPVTGPRNKTE [ATF6], the protein stability index by setting is: under setting [1], 5.67 ± 0.1; under setting [2], 5.59 ± 0.3.

In the case of LHARLRELLCELGRPSMVWLSANP [PRAME], the protein stability index runs as follows: under setting [1], 2.65 ± 0.57; under setting [2], 2.39 ± 0.42.

The sequence LAVGTDLYGQRNSAPEQELLVQDA [GFOD1] registered a protein stability index under setting [1] of 4.66 ± 0.22 and a protein stability index under setting [2] of 4.69 ± 0.36.

Regarding WKYILLGLADVEANYVIVRAYQYT [SLC35F2], the protein stability index is, setting by setting: under setting [1], 2.77 ± 0.66; under setting [2], 2.86 ± 0.26.

Take TTPLQLAIIRERSSCVKILLDHNA [ASB7]: the protein stability index reads like this: under setting [1], 2.26 ± 0.16; under setting [2], 2.34 ± 0.22.

In the case of AGREVFDYSHRQKEQDVEKELRDG [NFE2L1], the protein stability index reads like this: under setting [1], 4.99 ± 0.25; under setting [2], 5.53 ± 0.52.

Turning to LSNLQKESRACLERIQELEDLLAK [LMNB1], the protein stability index is, setting by setting: under setting [1], 3.52 ± 0.15; under setting [2], 3.67 ± 0.23.

For the sequence KGALQKKPLYVAFSFMYILVGLTV [KCNK9], the protein stability index is, setting by setting: under setting [1], 3.46 ± 0.47; under setting [2], 2.85 ± 0.51.

For the sequence HDIDCQWVDITDVPPGDYLFQVVI [LOXL2], the protein stability index is, setting by setting: under setting [1], 3.01 ± 0.2; under setting [2], 2.92 ± 0.41.

Take VELLPPAPKGKGRKPAAGAQSAGT [BRD3]: the protein stability index by setting is: under setting [1], 4.58 ± 0.3; under setting [2], 4.87 ± 0.42.

As for EGRLRYPSRREPPPRRSRSRSHDR [CLK3], the protein stability index is 5.33 ± 0.31 under setting [1] and 5.45 ± 0.1 under setting [2].

Regarding SKLKMLERKGWLAPSPGVKEQAIW [PKD2L1], the protein stability index is, setting by setting: under setting [1], 2.26 ± 0.35; under setting [2], 2.54 ± 0.3.

With PGNLEKNRYGDVPCLDQTRVKLTK [PTPN9], under setting [2], the protein stability index came out at 4.32 ± 0.72.
